Measured values: PMC10505172 (2023)
Where “and” joins values, the source holds several entries; their conditions need not be identical. Equal values may be shown once. Read-outs that look alike come from different tables or passages of the source.

Legend:
[1] = molecular target: T1, HIS:SUMO:HD2 fusion protein (tick; entry name EVA4_RHISA, the …); experiment: BLI
[2] = molecular target: T1, HIS:SUMO:HD2 fusion protein; experiment: BLI; remark: listed apart in the source

B1: CCL8 (ligand)
chain: QPDSVSIPITCCFNVINRKIPIQRLESYTRITNIQCPKEAVIFKTKRGKEVCADPKERWVRDSMKHLDQIFQNLKP
[1]
  Kd: 142 nM and 84.9 nM
[2]
  Kd: 142 nM
